Values quoted from earlier work as cited in patent US5770691A, “Discriminatory substrates for MMP hydrolysis” (Regents of the University of Minnesota, priority 1995, dated 1998).
Like-named read-outs stand apart in the source and are kept apart here. [ ]: non-standard residue; d: D form. The star is where a group is joined. Dnp = O=[N+]([O-])c1ccc(*)c([N+](=O)[O-])c1; Nva = CCC[C@H](N)C(=O)O

Experiments:
[1] = molecular target: T1, MMP-3 (Homo sapiens, UniProt P08254); conditions: MMP-3 cleavage, cited from earlier work
T1 sequence (P08254 100-477, species assumed): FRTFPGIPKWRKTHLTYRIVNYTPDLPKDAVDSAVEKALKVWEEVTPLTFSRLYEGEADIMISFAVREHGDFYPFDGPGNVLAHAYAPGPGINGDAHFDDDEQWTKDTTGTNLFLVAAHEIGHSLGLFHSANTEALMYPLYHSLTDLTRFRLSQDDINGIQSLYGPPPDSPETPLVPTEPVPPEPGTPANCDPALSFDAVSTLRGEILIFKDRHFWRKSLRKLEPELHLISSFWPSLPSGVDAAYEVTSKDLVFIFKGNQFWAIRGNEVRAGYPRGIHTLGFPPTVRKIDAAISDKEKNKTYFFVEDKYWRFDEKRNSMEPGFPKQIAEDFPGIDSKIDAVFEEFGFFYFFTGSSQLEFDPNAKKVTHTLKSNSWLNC

[2] = molecular target: T1, MMP-3; conditions: cited from earlier work

Human aggrecan: extracellular matrix protein cleaved by MMP-3 at Asn341-Phe342
kcat /Kb ([1]; determined at 22° C.): 4,000 S^-1 M^-1

Human α2 -macroglobulin: protein substrate of MMP-3; cleavage sites Gly679-Leu680 and Phe684-Tyr685
kcat /Kb ([1]; determined at 25° C.): 56,000 S^-1 M^-1

Dnp--Pro--Tyr--Ala"--"Tyr--Trp--Met--Arg--NH3 (Dnp-PYAYWMR-NH2; not fully specified; printed as Dnp—Pro—Tyr—Ala"—"Tyr—Trp—Met—Arg—NH$_3$) [literature fluorogenic substrate (Netzel-Arnett et al., 1991)]
kcat ([2]; MMP-3, assay at 23° C.): 0.24 S^-1
Km ([2]; MMP-3, assay at 30° C.): 100 µM
kcat Km ([2]; MMP-3, assay at 37° C.): 2,400 S^-1 M^-1

α1 -Protease inhibitor: protease inhibitor cleaved by MMP-3 at Pro357-Met358
kcat /Kb ([1]; determined at 37° C.): 5,400 S^-1 M^-1

Gly--Pro--Gln--Gly"--"Ile--Ala--Met--Gln (chain 1 GPQG; chain 2 IAMQ; printed: Gly--Pro--Gln--Gly; printed: Ile--Ala--Met--Gln) [literature synthetic MMP-3 substrate (Fields, 1988)]
Km ([2]; MMP-3, assay at 30° C.): 5600 µM
kcat ([2]; MMP-3, assay at 30° C.): 0.69 S^-1
kcat Km ([2]; MMP-3, assay at 30° C.): 120 S^-1 M^-1

Dnp-Arg-Pro-Lys-Pro-Leu-Ala-Nva-Trp-NH2 (Dnp-RPKPLA[Nva]W-NH2; SMILES CCC[C@H](NC(=O)[C@H](C)NC(=O)[C@H](CC(C)C)NC(=O)[C@@H]1CCCN1C(=O)[C@H](CCCCN)NC(=O)[C@@H]1CCCN1C(=O)[C@H](CCCNC(=N)N)Nc1ccc([N+](=O)[O-])cc1[N+](=O)[O-])C(=O)N[C@@H](Cc1c[nH]c2ccccc12)C(N)=O) [literature fluorogenic MMP-3 substrate (Niedzwiecki et al., 1992)]
kcat Km ([2]; MMP-3, assay at 25° C.): 45,000 S^-1 M^-1

Substance P: 11 residue peptide substrate of MMP-3, cleaved at Gln6-Phe7 [reference compound]
kcat /Kb ([1]; determined at 37° C.): 1,790 S^-1 M^-1

Antithrombin III
kcat /Kb ([1]; determined at 37° C.): < 50 S^-1 M^-1
